Assay results from paper PMC3324563 (Biochemistry, 2012).
Values joined by “and” are separate entries in the source; they are usually repeats but may differ in a detail not shown here. Identical values can stand only once. Values belong to the molecule of their own block, whether it stands above or below them.

B1: Methanocaldococcus jannaschii H2-forming N5,N10-methylene-H4MPT dehydrogenase (Hmd) (enzyme, Methanocaldococcus jannaschii JAL-1, UniProt Q58194 1-358, looked up)
chain: MKIAILGAGCYRTHAAAGITNFMRACEVAKEVGKPEIALTHSSITYGAELLHLVPDVKEVIVSDPCFAEEPGLVVIDEFDPKEVMEAHLSGNPESIMPKIREVVKAKAKELPKPPKACIHLVHPEDVGLKVTSDDREAVEGADIVITWLPKGNKQPDIIKKFADAIPEGAIVTHACTIPTTKFAKIFKDLGREDLNITSYHPGCVPEMKGQVYIAEGYASEEAVNKLYEIGKIARGKAFKMPANLIGPVCDMCSAVTATVYAGLLAYRDAVTKILGAPADFAQMMADEALTQIHNLMKEKGIANMEEALDPAALLGTADSMCFGPLAEILPTALKVLEKHKVVEEEGKTKCEIMSQKE
B2: Alexafluor-labeled Methanocaldococcus jannaschii HmdII (natural protein, Methanocaldococcus jannaschii JAL-1, UniProt Q58734 1-353, looked up)
chain: MRNIRKIKVDNMKVSVYGAGNQNLYINKLNLPEKFGGEPPYGGSRMAIEFAEAGHDVVLAEPNKNIMSDDLWKKVEDAGVKVVSDDVEAAKHGEIHVLFTPFGKATFRIAKTIIEHVPENAVICNTCTVSPVVLYYSLEPILRTKRKDVGISSMHPAAVPGTPQHGHYVIGGKTTDGKELATEEQIKKAVELAKSAGKEAYVVPADVSSVVADMGSLVTAVALSGVLDYYTVGRKIINAPKKMIEQQVIMTLQTMASLVETSGIEGMVKALNPELLIRSASSMKLLDRQKDLDAALEILQNLDETLKAEVEKAEIKPTTLVAAQSLVKEIKTLIGGAAAEGAIKRSARKLFEH
modifications: Alexafluor label (AlexaFluor 488), site not stated
B3: Methanocaldococcus jannaschii prolyl-tRNA synthetase (ProRS) (enzyme, UniProt Q58635 1-455, looked up)
chain: MEFSEWYSDILEKAEIYDVRYPIKGCGVYLPYGFKIRRYTFEIIRNLLDESGHDEALFPMLIPEDLLAKEAEHIKGFEDEVYWVTHGGKTQLDVKLALRPTSETPIYYMMKLWVKVHTDLPIKIYQIVNTFRYETKHTRPLIRLREIMTFKEAHTAHSTKEEAENQVKEAISIYKKFFDTLGIPYLISKRPEWDKFPGAEYTMAFDTIFPDGRTMQIATVHNLGQNFSKTFEIIFETPTGDKDYAYQTCYGISDRVIASIIAIHGDEKGLILPPIVAPIQVVIVPLIFKGKEDIVMEKAKEIYEKLKGKFRVHIDDRDIRPGRKFNDWEIKGVPLRIEVGPKDIENKKITLFRRDTMEKFQVDETQLMEVVEKTLNNIMENIKNRAWEKFENFITILEDINPDEIKNILSEKRGVILVPFKEEIYNEELEEKVEATILGETEYKGNKYIAIAKTY

Legend:
[1] = biological target: Methanocaldococcus jannaschii HmdIII (Methanocaldococcus jannaschii JAL-1); assay: SEC-MALS
[2] = biological target: Alexa Fluor 488-labeled Methanocaldococcus jannaschii ProRS (Methanocaldococcus jannaschii) (UniProt Q58635); assay: fluorescence polarisation
SEC-MALS = biological target: the molecule itself; assay: SEC-MALS
[3] = biological target: B3; assay: fluorescence polarisation

- stoichiometry N [1]: 2 and 4
- Kd [2]: 1890 nM
Molecule: Methanocaldococcus jannaschii HmdIII (natural protein)

Molecule: B1
- stoichiometry N (SEC-MALS): 2

Molecule: B2
- binding result [3]: binds

Molecule: B3
- stoichiometry N (SEC-MALS): 2
